Biological target: CD40 (UniProt P25942)
Assay: cell-based or functional assay

EC50 of CD40 activation, bioluminescent reporter CHO cells: -1.47 log(µM)
Substance: LOB7/6 (antibody)
